Fewer inactive variants are shown than the library holds.
Key:
biotinyl-Val-oxazolone = assay: self-aminoacylation, catalytic enhancement (BVO) (fold over background); higher = more active; k-Seq, kA / k0A0; sequences stand for … in GGGAAUGGAUCCACAUCUACGAAUUC…UUCACUGCAGACUUGACGAAGCUG
Summary of the method: (§1)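 Working in 50 μL HEPES/NaCl/KCl/MgCl2/CaCl2 buffer with 5% acetonitrile at pH 6.9–7.0, mutagenized RNA pools (0.43 μM; 21-nt variable region) were reacted with 2–1250 μM of each biotinyl-aminoacyl-oxazolone for 90 minutes at room temperature. Streptavidin capture followed, with quantification by triplicate qPCR and Illumina sequencing. Catalytic enhancement is reported as median kA over the uncatalyzed rate, the low-activity peak of a bimodal Gaussian fit to the data.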

biotinyl-Leu-oxazolone = assay: self-aminoacylation, catalytic enhancement (BLO) (fold over background); higher = more active; k-Seq, kA / k0A0; sequences stand for … in GGGAAUGGAUCCACAUCUACGAAUUC…UUCACUGCAGACUUGACGAAGCUG
Summary of the method: as §1

biotinyl-Ile-oxazolone = assay: self-aminoacylation, catalytic enhancement (BIO) (fold over background); higher = more active; k-Seq, kA / k0A0; sequences stand for … in GGGAAUGGAUCCACAUCUACGAAUUC…UUCACUGCAGACUUGACGAAGCUG
Summary of the method: as §1

biotinyl-Trp-oxazolone = assay: self-aminoacylation, catalytic enhancement (BWO) (fold over background); higher = more active; k-Seq, kA / k0A0; sequences stand for … in GGGAAUGGAUCCACAUCUACGAAUUC…UUCACUGCAGACUUGACGAAGCUG
Summary of the method: as §1

biotinyl-Phe-oxazolone = assay: self-aminoacylation, catalytic enhancement (BFO) (fold over background); higher = more active; k-Seq, kA / k0A0; sequences stand for … in GGGAAUGGAUCCACAUCUACGAAUUC…UUCACUGCAGACUUGACGAAGCUG
Summary of the method: as §1

biotinyl-Met-oxazolone = assay: self-aminoacylation, catalytic enhancement (BMO) (fold over background); higher = more active; k-Seq, kA / k0A0; sequences stand for … in GGGAAUGGAUCCACAUCUACGAAUUC…UUCACUGCAGACUUGACGAAGCUG
Summary of the method: as §1

| Sequence | self-aminoacylation (biotinyl-Val-oxazolone) | self-aminoacylation (biotinyl-Leu-oxazolone) | self-aminoacylation (biotinyl-Ile-oxazolone) | self-aminoacylation (biotinyl-Trp-oxazolone) | self-aminoacylation (biotinyl-Phe-oxazolone) | self-aminoacylation (biotinyl-Met-oxazolone) |
| --- | --- | --- | --- | --- | --- | --- |
| AUGCACCGAGGUCAUCGGGUG [Fam2.2 aminoacylation ribozyme variant] | 3.66 | 6.58 | 3.81 | 6.46 | 40.4 | 5.79 |
| AAUCCCCUAGGUCAUCGGGUG [Fam2.2 aminoacylation ribozyme variant] | 8.17 | 16.3 | 7.49 | 11.8 | 104 | 13.5 |
| CCACACCUCAUGCAAUCGGUC [Fam1B.1 aminoacylation ribozyme variant] | 1.05 | 0.685 | 0.959 | 0.975 | 1.19 | 0.839 |
| AAGUUUGCUAAUAGUGGCAAC [Fam3.1 aminoacylation ribozyme variant] | 0.822 | 0.783 | 0.805 | 0.575 | 0.826 | 0.737 |
| AUUUACCUAGCUCAUCGGGUG [Fam2.2 aminoacylation ribozyme variant] | 2.4 | 2.58 | 2.01 | 2.04 | 8.53 | 2.16 |
| AAGUUUGGUAACAGUCGCAAG [Fam3.1 aminoacylation ribozyme variant] | 0.987 | 0.857 | 1.07 | 0.693 | 1.24 | 0.994 |
| AUUACCCAGUUCAUCGAGUGA [Fam2.1 aminoacylation ribozyme variant] | 2.62 | 3.09 | 2.14 | 4.78 | 16.8 | 3.69 |
| AAGAUCGCUAAUAGUCGCAAG [Fam3.1 aminoacylation ribozyme variant] | 1.51 | 2.08 | 1.86 | 1.96 | 3.04 | 1.79 |
| CUUACCCUGGUCAUCGCGUGA [Fam2.1 aminoacylation ribozyme variant] | 10.9 | 18.9 | 7.79 | 18.5 | 148 | 18.7 |
| AUUACCCUGGUGAUGGAGUGA [Fam2.1 aminoacylation ribozyme variant] | 2.55 | 5.75 | 2.62 | 5.69 | 31.1 | 5.67 |
| AUUCACCUAGGUCAGCGAGUG [Fam2.2 aminoacylation ribozyme variant] | 3.34 | 6.37 | 3.44 | 5.84 | 25.3 | 4.93 |
| AAGUUCGCUAAUAGCCGCAAG [Fam3.1 aminoacylation ribozyme variant] | 1.12 | 1.38 | 1.35 | 1.75 | 1.97 | 1.82 |
| GAGUUUACUAAUAGUCGCAAG [Fam3.1 aminoacylation ribozyme variant] | 1.29 | 1.59 | 1.84 | 2.33 | 3.13 | 1.19 |
| ACUCACCGAGGUCAUCGGGUG [Fam2.2 aminoacylation ribozyme variant] | 5.07 | 7.63 | 4.34 | 8.16 | 41.6 | 6.05 |
| AAUUCCCUGGUCAUCGAGUGA [Fam2.1 aminoacylation ribozyme variant] | 6.09 | 10.8 | 5.6 | 13 | 41.5 | 10.1 |
| CUGCUGCAAACAAUCGGUCUG [Fam1A.1 aminoacylation ribozyme variant] | 1.07 | 1.31 | 1.05 | 1.53 | 1.81 | 0.995 |
| CAUCUUCAAACAAUCGGUCUG [Fam1A.1 aminoacylation ribozyme variant] | 1.23 | 1.96 | 1.14 | 24.5 | 47 | 1.48 |
| AGUACCCUGGUCCUCGAGUGA [Fam2.1 aminoacylation ribozyme variant] | 2.81 | 5.58 | 2.7 | 4.66 | 18.1 | 4.14 |
| CAGUUUGCUAAUAGUCACAAG [Fam3.1 aminoacylation ribozyme variant] | 0.952 | 1.11 | 1.04 | 1.3 | 2.59 | 1.04 |
| CCACAAUUCAAGCCAUCGGUC [Fam1B.1 aminoacylation ribozyme variant] | 1.7 | 1.59 | 1.46 | 1.3 | 1.19 | 1.47 |
| AAUCACCUAGGUCCUCGGGUG [Fam2.2 aminoacylation ribozyme variant] | 3.29 | 5.07 | 3.74 | 5.34 | 19.7 | 3.73 |
| AAGUUCGCUAAUACUCGCAAG [Fam3.1 aminoacylation ribozyme variant] | 1.12 | 1.2 | 1.53 | 0.7 | 0.849 | 1.47 |
| CUACUUCAAACCAUCGGACUG [Fam1A.1 aminoacylation ribozyme variant] | 0.873 | 0.747 | 0.8 | 0.444 | 0.578 | 0.669 |
| CCACACUUCAAGCAAGCGUUC [Fam1B.1 aminoacylation ribozyme variant] | 0.728 | 0.516 | 0.689 | 0.492 | 0.905 | 0.454 |
| CAACUUCAGACAAUCGGUCUG [Fam1A.1 aminoacylation ribozyme variant] | 1.09 | 1.08 | 1.09 | 1.43 | 2.46 | 0.989 |
| AAGUGUGCUAAUAUUCGCAAG [Fam3.1 aminoacylation ribozyme variant] | 1.53 | 1.51 | 1.92 | 2.22 | 1.63 | 1.58 |

| Sequence | self-aminoacylation (biotinyl-Val-oxazolone) | self-aminoacylation (biotinyl-Leu-oxazolone) | self-aminoacylation (biotinyl-Ile-oxazolone) | self-aminoacylation (biotinyl-Trp-oxazolone) | self-aminoacylation (biotinyl-Phe-oxazolone) | self-aminoacylation (biotinyl-Met-oxazolone) |
| --- | --- | --- | --- | --- | --- | --- |
| AAUUUUGCUAAUAGUCGUAAG [Fam3.1 aminoacylation ribozyme variant] | 1.44 | 1.31 | 1.42 | 4.02 | 10.9 | 1.11 |
| AUUACCCUGGUCAUCAAGUGA [Fam2.1 aminoacylation ribozyme variant] | 1.79 | 2.25 | 1.51 | 2.87 | 4.11 | 2.31 |
| CAACACCUCAAGCAAUCGGUC [Fam1B.1 aminoacylation ribozyme variant] | 0.914 | 1.1 | 0.947 | 0.997 | 1.3 | 1.27 |
| AAUCACCUAGGUCAUCGCGUG [Fam2.2 aminoacylation ribozyme variant] | 7.32 | 12.1 | 6.41 | 10.4 | 70.6 | 11.3 |
| AUUCACCUAUGUCAUCGAGUG [Fam2.2 aminoacylation ribozyme variant] | 2.98 | 5.42 | 3.35 | 4.95 | 17.2 | 4.64 |
| AUUCACCUAGGUCAUCGGCUC [Fam2.2 aminoacylation ribozyme variant] | 2.22 | 2.45 | 2.5 | 2.47 | 5.2 | 2.14 |
| AAGUUUGCUAAUAGUCGCGAC [Fam3.1 aminoacylation ribozyme variant] | 0.909 | 0.907 | 0.944 | 1.19 | 1.05 | 1 |
| CCAGACUUCAAGCAAUCUGUC [Fam1B.1 aminoacylation ribozyme variant] | 0.576 | 0.45 | 0.467 | 0.309 | 0.591 | 0.444 |
| AAGUAUGCUAGUAGUCGCAAG [Fam3.1 aminoacylation ribozyme variant] | 1.35 | 0.756 | 1.26 | 1.12 | 2.22 | 1.22 |
| CUUCACUUCAAGCAAUCGGUC [Fam1B.1 aminoacylation ribozyme variant] | 1.15 | 1.55 | 1.05 | 20.9 | 46.4 | 1.16 |
| CUACUUCGGACAAUCGGUCUG [Fam1A.1 aminoacylation ribozyme variant] | 0.923 | 0.867 | 0.815 | 0.75 | 0.631 | 0.928 |
| CCACUUCUAACAAUCGGUCUG [Fam1A.1 aminoacylation ribozyme variant] | 0.897 | 0.875 | 0.858 | 0.68 | 0.834 | 0.758 |
| CUACUUCAAAGAAGCGGUCUG [Fam1A.1 aminoacylation ribozyme variant] | 0.988 | 0.82 | 1.09 | 0.832 | 1.17 | 1.01 |
| AUUGACCUAGUUCAUCGGGUG [Fam2.2 aminoacylation ribozyme variant] | 2.59 | 3.62 | 2.62 | 4.08 | 18.6 | 3.19 |
| AUGUUUGCUAAAAGUCGCAAG [Fam3.1 aminoacylation ribozyme variant] | 1.47 | 1.83 | 1.56 | 2.45 | 4.95 | 1.69 |
| UCACAAUUCAAGCAAUCGGUC [Fam1B.1 aminoacylation ribozyme variant] | 0.986 | 0.949 | 1.04 | 1.39 | 1.8 | 0.989 |
| AUUCACUUAGGUCAUCGGGCG [Fam2.2 aminoacylation ribozyme variant] | 3.17 | 4.02 | 2.55 | 3.91 | 4.38 | 3.18 |
| AAGUUUGCUUAUAGACGCAAG [Fam3.1 aminoacylation ribozyme variant] | 0.585 | 0.495 | 0.591 | 0.629 | 0.84 | 0.559 |
| AAGUUUGCUACUAGUCGCCAG [Fam3.1 aminoacylation ribozyme variant] | 1.1 | 0.749 | 1.27 | 1.91 | 0.986 | 1.26 |
| UAGUUUGCUAAUAAUCGCAAG [Fam3.1 aminoacylation ribozyme variant] | 1.12 | 0.887 | 1.11 | 0.875 | 1.77 | 1.04 |
| AUUCUUCUAGGUCAUCGGGUG [Fam2.2 aminoacylation ribozyme variant] | 5.28 | 9.07 | 4.52 | 6.98 | 50.3 | 7.87 |
| AUAACCCUGGACAUCGAGUGA [Fam2.1 aminoacylation ribozyme variant] | 2.47 | 6.63 | 3.02 | 5.65 | 28.8 | 6.69 |
| AAGUUUGCUAAUAGUUGCAUG [Fam3.1 aminoacylation ribozyme variant] | 0.934 | 1.14 | 0.96 | 0.685 | 1.14 | 0.831 |
| AUUCGCCCAGGUCAUCGGGUG [Fam2.2 aminoacylation ribozyme variant] | 3.96 | 6.46 | 4.14 | 5.2 | 42 | 4.75 |
| GUUCACCUAGGACAUCGGGUG [Fam2.2 aminoacylation ribozyme variant] | 3.56 | 4.61 | 3.61 | 5.67 | 16.3 | 3.24 |

Reference: the supplement of paper PMC9233669
